Assay results published in patent publication US7001748B2, “Methods of making polyketides using hybrid polyketide synthases” (The Board of Trustees of the Leland Stanford Junior …, priority 1999, dated 2006).

Biological target: T1, (5)M2+TE (Saccharopolyspora erythraea, UniProt Q03131+Q03133)
T1 construct: a single module of the DEBS PKS fused to the thioesterase (TE) termination region of module 6; made in house; host or cells: E. coli BL21(DE3); ACP4(4) from pNW8 (pET28a), phosphopantetheinylated in vitro with Sfp
Test: Labeling of holo-ACP4(4) with 14C-2a mediated by (5)M2+TE (back-transfer)
Format: biochemical
Conditions: presence and absence of (5)M2+TE
Experimental: Labeling of Holo-ACP4(4) with ^14C-2a Mediated by (5)M2+TE. Holo-ACP4(4) (20 μM) was incubated with 1 mM [1-^14C]-labeled 2a (custom synthesized by Amersham Pharmacia, specific activity 55 mCi/mmol) and 1 μM (5)M2+TE in reaction buffer C for 10 min at 30° C. The protein was precipitated with 75% acetone/H2O for 5 min at −80° C. After washing the pellet with 6.25% (w/v) TCA to remove excess salts followed by 500 μL of 75% acetone/H2O to remove residual, unbound 14 C-2a, the precipitated protein was resuspended in 8 μL of buffer A and 4 μL of SDS sample buffer, and resolved on a 4-20% SDS-PAGE gradient gel (Bio-Rad). The proteins were visualized with Coomassie blue stain and dried, and the radioactivity was detected either on a Packard InstantImager or by exposing the gel to X-ray film.

B1: holo-ACP4(4): DEBS ACP4 catalytic domain with its natural C-terminal linker, phosphopantetheinylated (protein)
chain: HHHHHHNVVDRLAGRSESDQVAGLAELVRSHAAAVSGYGSADQLPERKAFKDLGFDSLAAVELRNRLGTATGVRLPSTLVFDHPTPLAVAEHLRDRLFAASPAVDIGDRLDELEKALEALSAEDGHDDVGQRLESLLRRWNSRRADAPSTSAISEDASDDELFSMLDQRFGGGEDL
modifications: non-natural residues
notes: DEBS ACP4 catalytic domain with its natural C-terminal linker, phosphopantetheinylated
Question: Which “radiolabeling of ACP by 14C-2a” value does the source give for B1 here?
Answer: radiolabeled only in the reaction containing (5)-M2+TE
